The DeepSol protein solubility set

Assay: soluble on expression in E. coli; label from the status in PepcDB or PDB records
In the case of “MPELSETAERSQSNTPLAMIMDDSDIDYQRFQELVASTDSLAILCHDNPDPDTLASALALEAIAKEWEVPTVDIVYGGTVTHQQNRAMINVLDIELTPIDQVSLSDYGLVAFVDHGIPGQNNSAVEEMTPDIIIDHHPTDGLQGQFVDLRPAVGATATLLTRYLEIFSIELEERLATALLFALHRETLDFNRETTSTEHAAACVLHPHADHNIIEELTNSVFTPETISGIGDAIANREVRGSCLVSSLGWIRERDAVPQAADYLLQLEGVSTTIVYGIVDDNVHLSGRTSNSQLHIGNVMEETFDQVGSAGGHHDMAGGQVPLGFIGSVDDGDDVAIDLINQSMMARLFGALEGWTET”, the “soluble on expression in E. coli” value is reported as “not soluble”.
For “IQRQMFPNIEVNYIDVRATYPGASPQEIEESILVKVEESIKDVTGIKKVVSRASRGSAYISIEVDVNADIKRVLDDVNQRIDTISNLPLGMEPINVYQVEWRQDVIEMGLVGDRPLEELKPIAKQIEDELLQLNNVMLVYLSAPEEEIAIEVDPLVLRKYDLTLNDVSNAIRRYSANFSAGEVKTNSGMIAVRIENQYYRGDEFRNIPVKLGANGAKVLLQDIATIKDGFTEEERYFEYSGQNAIYMSVEATRDQNIIPVAQSVRDYIEAKNKTLPSDVQLKILVDMTYYLNGRLDMMLK”, the “soluble on expression in E. coli” value was “not soluble”.
For “MPRDPLIGIVGKPSSGKSTTLNSLTDAGAAVGAFPFTTIEPNQATGYLQVECACSRFGKEDLCKPNYGWCSKGKRHIPIKLLDVAGLVPGAHSGRGLGNKFLDDLRHADALIHVVDVSGTTDAEGKNTRGYDPLNDIEWLQDEIRLWVEGNLKKRWGSIVRKHTATKSSIVDTLQAQFGGYGSHAPMIQKALDRLKGLPPLEKWDDEWITRVVKSFMMEKFPTVLALNKIDHPDADKNVSKIMLKYPDTKAVLTSAVTEVFLRKLKKQGFILYEEGTEFVDTFEDEPDKLKPLDDKILNRIENIRDLVLYRFGSTGVVQVLQAATDILGLIPVYTVKNIQTFTGGNGTNVFRDCFLVKRGTPVGKVARYIMGGEVTIASIETVGGVRVSEESLVEPGKNDILGFKIAPRSA”, the “soluble on expression in E. coli” value was “soluble”.
With “MTTKNKRVLQKCAYREEFKGDMERSTAATSKLPLEVELSRNSKGLIIILSSPSGTGKSSLAKALLKIDNNLRLSISATTRKPRLGEVEGINYYFKTGLEFEELVKQNKFLEYAKIYDNYYGTPKEYVEMLLNQGLDVLFDIDWQGARSIKKNATNVVTIFVLPPNIEVLEQRLRNRATDNEEAIKLRMQLAQNEISHANEYDYVVTNDDFDRTLKKIHAIIVAARDKAF” the “soluble on expression in E. coli” value was “soluble”.
With “MAHHHHHHMLLQFNWDRLDVTAAEAICALLNAKLEEELLLRRAANQSVNASGGQETASADAACGVESLRVTNIEWGNVPPFIEVVELDDAVEFASSTPLSFEAPLGQQDFGGTISSGTCGGGATTPFFLRPSPASSVTMMDGISETDSGIVGNHGGMPTPSVPPASGIRPGNGQSPINSSSAPVKDAFAAYFGPKGLYVCLHVTYGGPMRVSVASVLRHDVPLGPIAIPVRMPLQLHFSKMDMDFHLCINLHRNTCRVWMEPGKLFTSPLNRMNVMAVFGERRPSSQHMAEFPTSGQNAGDDLDTSDAWTHVGSSRIGSDDAEDMVFIDESIISQFVLKEVRAILQEKIIYPHSVVVPLSL” the “soluble on expression in E. coli” value was “not soluble”.
In the case of “MYPADFASQLNVLTLAEMKKTIHDILDFRDEDIWMLFGTLPVFPCLKDDEDQKLLSRLRNANNVTTRNDPDGRSRLNVNVFTGNVIVTDFGDETGTISNIQKDKLTDVFDKWLSSDLAKSLNCHCSEFSCLGPNVLVKNMYYPNMDFKDNERHMHKQPQIIQF”, the “soluble on expression in E. coli” value is reported as “not soluble”.
In the case of “QALASDSEEADEVPEWLREGEFVTVGAHKTGVVRYVGPADFQEGTWVGVELDLPSGKNDGSIGGKQYFRCNPGYGLLVRPSRVRRAT”, the “soluble on expression in E. coli” value is reported as “soluble”.
In the case of “MSLLNSPLAERIRPQNLSEYLSQNHLVGERGTLRQHILNGTIPSLILWGPPGTGKTTLANIIAQESKRPFYTLSAINSGVKDVREVIDKAKSAGGLFTAKNPILFIDEIHRFSKSQQDSLLAAVEKGWVTLIGATTENPSFEVIPALLSRCQVYVLDAFAKADLEQLLHRAMKIDEVLSIKDITIQETEALLRISGGDARKLLNIFELVINSQPSGPIVITNELVFEQVQSNPARYDKTGEQHYDIISAFIKSIRGSDPNAAVYWLARMIEGGEDLKFIARRMLILASEDIGNANPTALIMANNTFQAVSTIGYPESRIILSQCAIYLATSIKSNASYLAIGQAQQIVKQTGDLPVPLGLRNAPTKLMKELGYGQEYKYAHDHPGNFAQFDFLPTEISGTKIFNPGNNPREQAQREFLEKRWKEHYDYKPSKGEGHHHHHH”, the “soluble on expression in E. coli” value is reported as “soluble”.
With “MGSDKIHHHHHHMATRHDRDGGQTTANLTIATGLDAFTRKEWATLAGTTRSDSDYNPFISHEFLAALEESGCAARRTGWLPQHLRLEDANGSLLGVVPCYLKSHSKGEYVFDYGWADAFERAGGQYYPKLQVSVPFTPVTGPRLLASKDADPDAVRQALAEGLKTLTDRLGVSSLHVTFAPRSETEVLSHAGFLTRTDQQFHFFNEGYGSYEDFLEALASRKRKALKKERRTAVEAGMEIEWLTGRDITEAAWDDFFAFYMDTASRKWGRPYLNRLFFSLIGERMADDILLVMAKRGSRYIAGAINFIGSDALYGRNWGAIEHHPFLHFEVCYHQAIEFAIAKGLKRVEAGAQGEHKLARGYLPVTTYSAHYIAHPGLRRAVADYLSRERREVEAIGDFLTEHSPYKKG” the “soluble on expression in E. coli” value was “not soluble”.
For “MKQKRLTFLLLLISNLFCASAQKWYKPEIDLKVEELLSQMTVEEKLGYIGGIDWMYTKSIDRLGIHRMRMSDGPQGIGTKGKSTAYPATVTLAATWNENLAYQYGKALGRDCRARNINVILGPAVNIYRAPMCGRNFEYMGEDPYLTSRICVGYIKGVQDQGVMATVKHFVANNSDYDRNNISNDIDERTLNEIYFPAYKAAIQEAEVGAIMTSYNLMNGIYTTENPWLLKEVLRNQWGFKGLVMSDWGSTHYCVPAARSGLDLEMAGGEKMNPKDMAYYLKTGDVTMDMVDEKVRHILRILIAFGFKDGTEADKSIALDDPQSVETA”, the “soluble on expression in E. coli” value was “not soluble”.
For “MGHHHHHHSHMVPSREALLGPGTTAIRCPKKLQNQNYKGHGLSKGKEREQRASIRFKTTLMNTLMDVLRHRPGWVEVKDEGEWDFYWCDVSWLRENFDHTYMDEHVRISHFRNHYELTRKNYMVKNLKRFRKQLEREAGKLEAAKCDFFPKTFEMPCEYHLFVEEFRKNPGITWIMKPVARSQGKGIFLFRRLKDIVDWRKDTRSSDDQKDDIPVENYVAQRYIENPYLIGGRKFDLRVYVLVMSVFAECLLWSGHRRQDVHLTNVAVQKTSPDYHPKKGCKWTLQRFRQYLASKHGPEAVETLFRDIDNIFVKSLQSVQKVIISDKHCFELYGYDILIDQDLKPWLLEVNASPSLTASSQEDYELKTCLLEDTLHVVDMEARLTGREKRVGGFDLMWNDGPVSREEGAPDLSGMGNFVTNTHLGCVNDRKKQLRQLFCS”, the “soluble on expression in E. coli” value was “soluble”.
For “AFTGKYEIESEKNYDEFMKRLALPSDAIDKARNLKIISEVKQDGQNFTWSQQYPGGHSITNTFTIGKECDIETIGGKKFKATVQMEGGKVVVNSPNYHHTAEIVDGKLVEVSTVGGVSYERVSKKLA”, the “soluble on expression in E. coli” value was “soluble”.
In the case of “SLQGKPTISVPEFKNDTNMSWWWWSGNTSRELADALSNELTSTGNFQVVERQNLGSVLSEQELAELGLTRPETSAQRGQLTGAQYIVLGRVTAYEEGVSSESGGNNFGLNLGLFSIGNSERQAKQEAYVAIDLRVVDSSTGEVVYARTVEGRATDTAASSANNVNILGIVNTGQDNQSTSRAPVGKALRAGLVEITDYLSCVMVEQDNCIQEYQDKDRQRRQKTKDTLILE”, the “soluble on expression in E. coli” value is reported as “soluble”.
With “MGCCQSKKARNNQRNNQRSDQMNRQHTQPSPNASTEQMAYPRQQPQGIPQGPPPAYAPPAAPKAPEKVVEPKNRRVTIAEPPERVAEPSPTPEDPELFTCIDQTEKEVEKEVEKRKSAPRAPVPAPTPAPQAAPQATPAAPAQAYPQQQQAAPVVYGSQPMVMGAAPVAPVVMAPPPVIMSPYPYYGGGVMFDPYYNGFYGGYGYGGFDFGYGGYGGYGCGFY” the “soluble on expression in E. coli” value was “not soluble”.
In the case of “SPLPDTMFCAQQIHIPPELPDILKQFTKAAIRTQPADVLQWSAGYFSALSRGDPLPVKDRIEMPVATQKTDTGLTQGLLKVLHKQCSHKQYVELADLEKKWKNLCLPVEKLRTILELDPCEDKIEWIKFLALGCSSLGRTLNTAMKNVCEILTSDPEGGPARIPFETFAYVYQYLSGLDPELPAVETENYLTSLRLMSESRKNGMIGLSDFFVGKKII”, the “soluble on expression in E. coli” value is reported as “soluble”.
With “MHHHHHHSSGLVPRGSGMKETAAAKFERQHMDSPDLGTDDDDKAMGCQKAVSPAAETAAVSPSVDAARLEPRVEERDGFWVLKEEFRSGINPAEKVKIEKDPMKLFIEDGISDLATLSMEEVDKSKHNKDDIDVRLKWLGLFHRRKHHYGRFMMRLKLPNGVTTSEQTRYLASVIKKYGKDGCADVTTRQNWQIRGVVLPDVPEIIKGLESVGLTSLQSGMDNVRNPVGNPLAGIDPHEIVDTRPFTNLISQFVTANSRGNLSITNLPRKWNPCVIGSHDLYEHPHINDLAYMPATKNGKFGFNLLVGGFFSIKRCEEAIPLDAWVSAEDVVPVCKAMLEAFRDLGFRGNRQKCRMMWLIDELGMEAFRGEVEKRMPEQVLERASSEELVQKDWERREYLGVHPQKQQGLSFVGLHIPVGRLQADEMEELARIADVYGSGELRLTVEQNIIIPNVENSKIDSLLNEPLLKERYSPEPPILMKGLVACTGSQFCGQAIIETKARALKVTEEVQRLVSVTRPVRMHWTGCPNSCGQVQVADIGFMGCMTRDENGKPCEGADVFVGGRIGSDSHLGDIYKKAVPCKDLVPVVAEILINQFGAVPREREEAE” the “soluble on expression in E. coli” value was “soluble”.
With “MKTVLLTGFDPFGGESINPAWEVAKSLHEKTIGEYKIISKQVPTVFHKSISVLKEYIEELAPEFIICIGQAGGRPDITIERVAINIDDARIADNEGNQPVDVPVVEEGPAAYWSTLPMKAIVKKLQEEGIPASVSQTAGTFVCNHLFYGLMHELEKHDTKMKGGFIHIPFLPEQASNYPGQPSMSLSTIRKGIELAVEVTTTVEVDIVEVGGTTH” the “soluble on expression in E. coli” value was “soluble”.
With “MEATRNETKPVWVYIIFRKNHCSGHEKMTVNISFDGPIFWKRQVAYIYCCSCHFDEHEGPLMAILEKFEQRVERVCLVDKPVDYPFLPDSLFSYMANKMPKLQFIYLRELDLEKINRGTVVELANHPNLKKVIVHLCRNYEVLEDFRNLPQLLVVKGEIMGLKVSTW” the “soluble on expression in E. coli” value was “not soluble”.
For “MTVPLYKQIASLIEDSIVDGTLSIDQRVPSTNELAAFHRINPATARNGLTLLVEAGILYKKRGIGMFVSAQAPALIRERRDAAFAATYVAPLIDESIHLGFTRARIHALLDQVAESRGLYK”, the “soluble on expression in E. coli” value was “not soluble”.
In the case of “TRAMEEALFQHFMHQKLGIAYAIHKPFPFFEGLLDNSIITKRMYMESLEACRNLIPVSRVVHNILTQLERTFNLSLLVTLFSQINLREYPNLVTIYRSFKRVGASY”, the “soluble on expression in E. coli” value is reported as “not soluble”.
With “MKTVYLTIDDGPSKDRKEKVDILYQYGIQPIWFCIGSEIEKRPEDVIYSIRKGGIIGNHSYSHPRFSQISLEECFEEIEKTDRIIDSIYREAGVARPIKAFRFPYGDKGEDNNFFKKPYSEEGKKKISKIMTFLKELGYTKPKFDGITYEYYSKFGLKDDIDWYWTYDVAEWCTFQEKPMFGVRTIDDVFELMELDLPEKWAGLNYPYSDDIILMHDHPQTTPLFKPIICQLLKKGLHFGAIPLE” the “soluble on expression in E. coli” value was “soluble”.
With “MGSDKIHHHHHHMTATVRQMWRHPIKGIGAEPLTEVRLETGGPMPLDRAWAVLTGTSEDTGAWQPCRNFARGCFGPELMAITAETQGNQITLRHPKQGEITLDPATDGARLLEWLLPLYPAERPQPHTLIKAPAGGMADADFSAVAILSLTSLKALGDALGQELDPRRFRGNLWIDGTAPFEEFDWVGRELKIGTARLEVVDRITRCRATETNPETGARDANTLKALREHWGHTDFGIRARVLSDGDIALSDSLEVL” the “soluble on expression in E. coli” value was “not soluble”.
